Assay [1] addresses T1, human iRhom1, endogenously expressed on RH-30 cells (human, UniProt Q96CC6 1-855).
T1 construct: RH-30 cells are described as endogenously negative for iRhom2 but endogenously expressing iRhom1; also called NP_071895.3
T1 sequence: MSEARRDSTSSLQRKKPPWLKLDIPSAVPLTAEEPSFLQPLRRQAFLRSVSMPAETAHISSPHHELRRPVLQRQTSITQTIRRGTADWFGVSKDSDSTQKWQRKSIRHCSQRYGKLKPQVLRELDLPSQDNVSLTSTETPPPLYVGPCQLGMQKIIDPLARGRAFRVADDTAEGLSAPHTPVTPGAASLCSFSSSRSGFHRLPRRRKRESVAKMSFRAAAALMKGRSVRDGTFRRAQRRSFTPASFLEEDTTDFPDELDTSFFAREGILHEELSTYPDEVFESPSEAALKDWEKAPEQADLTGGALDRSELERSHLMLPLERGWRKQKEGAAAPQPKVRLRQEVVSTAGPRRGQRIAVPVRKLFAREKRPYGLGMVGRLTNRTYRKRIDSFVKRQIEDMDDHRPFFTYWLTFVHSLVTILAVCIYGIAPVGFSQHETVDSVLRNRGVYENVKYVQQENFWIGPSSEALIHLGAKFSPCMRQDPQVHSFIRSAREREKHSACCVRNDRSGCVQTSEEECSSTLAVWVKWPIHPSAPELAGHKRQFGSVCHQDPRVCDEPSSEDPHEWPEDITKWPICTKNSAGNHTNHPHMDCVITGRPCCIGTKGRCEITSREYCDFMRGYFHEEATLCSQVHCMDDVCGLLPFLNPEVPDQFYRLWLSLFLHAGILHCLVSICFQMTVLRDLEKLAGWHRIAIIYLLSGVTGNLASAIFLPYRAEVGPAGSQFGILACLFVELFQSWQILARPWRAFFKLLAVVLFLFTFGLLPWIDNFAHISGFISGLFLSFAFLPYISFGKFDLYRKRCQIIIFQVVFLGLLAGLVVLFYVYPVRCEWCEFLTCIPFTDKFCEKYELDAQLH
Kind of assay: FACS on RH-30 cells (iRhom1-positive, not iRhom2-positive).

In assay [2] the target is T2, miR2-FL-WT-T7 (mouse iRhom2 full length wild type C-terminally tagged with 3 consecutive copies of the T7 … (mouse, UniProt Q80WQ6 1-827)).
T2 construct: also called mouse iRhom2 variant expressed by MEF-DKO-miR2-FL-WT-T7 cells
T2 sequence: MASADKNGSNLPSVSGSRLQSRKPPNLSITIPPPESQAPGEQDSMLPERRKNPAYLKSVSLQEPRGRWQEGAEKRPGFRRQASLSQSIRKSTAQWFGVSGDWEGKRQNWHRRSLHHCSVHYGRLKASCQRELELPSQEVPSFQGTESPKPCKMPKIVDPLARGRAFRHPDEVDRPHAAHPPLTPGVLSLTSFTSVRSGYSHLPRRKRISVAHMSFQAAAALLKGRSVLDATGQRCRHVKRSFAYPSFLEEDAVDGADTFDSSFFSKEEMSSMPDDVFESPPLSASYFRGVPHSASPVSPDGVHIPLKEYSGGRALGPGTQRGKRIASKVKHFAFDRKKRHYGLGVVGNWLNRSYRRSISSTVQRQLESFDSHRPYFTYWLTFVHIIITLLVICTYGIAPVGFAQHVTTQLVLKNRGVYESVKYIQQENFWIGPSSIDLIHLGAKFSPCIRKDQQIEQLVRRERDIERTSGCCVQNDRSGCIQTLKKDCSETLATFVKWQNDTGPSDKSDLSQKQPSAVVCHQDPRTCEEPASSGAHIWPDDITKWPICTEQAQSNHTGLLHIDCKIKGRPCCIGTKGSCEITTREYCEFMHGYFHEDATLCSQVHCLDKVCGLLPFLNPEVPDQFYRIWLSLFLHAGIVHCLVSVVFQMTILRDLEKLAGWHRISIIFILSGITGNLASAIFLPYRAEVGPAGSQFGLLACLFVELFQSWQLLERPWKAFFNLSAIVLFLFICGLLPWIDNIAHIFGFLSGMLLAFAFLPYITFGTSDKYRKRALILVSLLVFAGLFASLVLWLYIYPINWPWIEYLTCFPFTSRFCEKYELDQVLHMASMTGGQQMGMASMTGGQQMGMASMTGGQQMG
Kind of assay: FACS on MEF-DKO-miR2-FL-WT-T7 cells.

Numbering of substitutions follows the chain as printed.

B1: antibody 16 (antibody, V domains shown)
VH: QVTLKESGPGILQPSQTLSLTCSFSGFSLSTFALGVGWIRQPSGRGLEWLAHIWWDDDKYYNPALKSRLTISKDTSKNHVFLKIANVDTADTATYYCARITTYYYGMDYWGQGTSVTVSS
VL: DIVLSQSPATLSVTPGDSVSLFCRASQSIGNHLHWYQQESHASPRLLIKYASQSISGIPSRFSGSGSGTDFTLSINSVETEDFGMYFCQQSYNWPLTFGAGTKLELK
notes: Mouse IgG, kappa light chain; also called clone #16; m16
As for B1, the binding result in assay [1] is reported as “no binding (tested: 3 µg/ml)”.

B2: antibody 3 (antibody, V domains shown)
VH: QVTLKESGPGILQPSQTLSLTCSFSGFSLTTFAMGIGWVRQPSGKGLEWLAHIWWDGEKYNNPVLKSRLTISKDTSKNQVFLRIANVDTPDTATYYCARISSIYYIIDNWGQGTSVTVSS
VL: B1 VL with S5T, D17H, F22S, G30S, H32N, Q38K, E39K, A42E, A51V
notes: Mouse IgG, kappa light chain; also called clone #3; purified antibody 3
Turning to B2, in assay [2], the binding result is “no binding (tested: 3 µg/ml)”.
